Results: the supplement of paper PMC9732359
± gives the uncertainty stated by the source.

Test: protein stability index of a GFP-peptide fusion (yeast GPS) (PSI 1-4); higher = more stable; sorted into four equal gates, so the index is relative within each strain
Procedure, shortened: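 Yeast carrying a pooled library were grown to mid-log phase in leucine-free medium. Each library plasmid expresses Cherry and has a tiled 17-residue yeast protein peptide fused downstream of GFP. Cells were sorted into four equal gates by GFP/Cherry ratio, and plasmids from each gate were PCR-amplified, Illumina-sequenced and assigned to strains by barcode. Summing, across gates, the read frequency times the gate number gave each peptide's protein stability index.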

| Sequence | protein stability index (doa10∆) | protein stability index (pdr5∆) | protein stability index (san1∆) | protein stability index (ubr1∆) |
| --- | --- | --- | --- | --- |
| SGCDSTKPSLRKASCIW [ECM29] | 2.86 ± 0.082 | 3.11 ± 0.075 | 2.63 ± 0.076 | 2.98 ± 0.066 |
| PSYSPTSPSYSPTSPSY [RPO21] | 2.65 ± 0.03 | 2.884 ± 0.028 | 2.859 ± 0.028 | 2.815 ± 0.023 |
| TKKKSKFMTNSTAFVPT [ARP9] | 2.65 ± 0.054 | 2.79 ± 0.045 | 2.47 ± 0.058 | 2.77 ± 0.038 |
| DVSLLLQRDLFIRLPHW [RGR1] | 2.5 ± 0.087 | 2.51 ± 0.063 | 2.2 ± 0.073 | 2.55 ± 0.083 |
| QLSLDASKTNLRLTDVT [GAL11] | 2.85 ± 0.058 | 3.23 ± 0.066 | 3.06 ± 0.047 | 3.16 ± 0.047 |
| PSLEVASEYIETLGLKY [FAS1] | 3.02 ± 0.069 | 3.3 ± 0.082 | 3.21 ± 0.07 | 3.05 ± 0.067 |
| NTLRKCYPQFAERDSQG [UBP6] | 2.92 ± 0.17 | 2.65 ± 0.15 | 2.79 ± 0.15 | 2.78 ± 0.12 |
| GRIRTTREDVSPHYNSQ [SSN3] | 1.81 ± 0.067 | 2.02 ± 0.091 | 1.89 ± 0.07 | 1.73 ± 0.11 |
| DSVILASSKAVTRGISV [PRE1] | 2.14 ± 0.045 | 2.42 ± 0.048 | 2.28 ± 0.056 | 2.34 ± 0.041 |
| AVSRSMTDIWNTLIPES [ECM29] | 2.94 ± 0.067 | 3.05 ± 0.08 | 2.84 ± 0.054 | 3.03 ± 0.069 |
| PYEMYKYVHVSEVGNCS [FAS2] | 2.23 ± 0.056 | 2.53 ± 0.062 | 2.11 ± 0.068 | 2.11 ± 0.048 |
| LLFFNFSHSLTTILSFS [NUT1] | 1.41 ± 0.046 | 1.41 ± 0.034 | 1.46 ± 0.059 | 1.37 ± 0.033 |
| HIHKHVKDEAFDDLLKP [RET1] | 3.12 ± 0.11 | 3.4 ± 0.12 | 3.25 ± 0.073 | 3.11 ± 0.15 |
| DAWVSAAHYNRERIKRG [PRP8] | 2.76 ± 0.13 | 1.81 ± 0.099 | 2.6 ± 0.062 | 1.96 ± 0.15 |
| GTGKSQSGSNSGNNSKK [ROX3] | 3.37 ± 0.3 | – | 2.77 ± 0.2 | – |
| DCNSALDQLLVLEKKTR [RPN5] | 2.31 ± 0.068 | 2.31 ± 0.1 | 2.22 ± 0.058 | 2.44 ± 0.083 |
| FPRDGKAPEAEQVLSAA [RPL13B] | 3.3 ± 0.093 | 2.9 ± 0.086 | 2.9 ± 0.069 | 3 ± 0.045 |
| ENSYLRGLTPQEFFFHA [RPO21] | 2.49 ± 0.046 | 2.64 ± 0.046 | 2.45 ± 0.062 | 2.64 ± 0.047 |
| GLMSANNIIAEGIEKMG [FAS2] | 1.68 ± 0.12 | 1.74 ± 0.098 | 1.58 ± 0.18 | 1.48 ± 0.084 |
| ELLKSSLQKAGSKMEAK [AAR2] | 3.23 ± 0.077 | 3.35 ± 0.085 | 3.05 ± 0.079 | 3.07 ± 0.079 |
| LQETLNKSTSSEAEYSK [YIL149C/MLP2] | 3.11 ± 0.08 | 2.9 ± 0.081 | 3.27 ± 0.062 | 3.28 ± 0.068 |
| SFIISSLDTLELESITE [NUT1] | 1.74 ± 0.075 | 1.64 ± 0.042 | 1.78 ± 0.083 | 1.78 ± 0.04 |
| HGVSFKKRAPRAVKEIK [RPL31A] | – | 2.73 ± 0.14 | 2.97 ± 0.17 | 3.2 ± 0.11 |
| DPLNSNIFSEAVKNKYN [PRP28] | 1.81 ± 0.17 | 2.74 ± 0.11 | 3.02 ± 0.09 | 2.92 ± 0.096 |
| LVADGVFYAELNEFFTR [RPS3] | 3.2 ± 0.12 | 3.1 ± 0.12 | 3.08 ± 0.077 | 3.28 ± 0.078 |
| GNSFHLMRELLKMMKLI [PRP8] | 2.78 ± 0.051 | 2.41 ± 0.046 | 2.6 ± 0.065 | 2.43 ± 0.049 |
